Key:
TrkA [1] = molecular target: T1, TrkA (Homo sapiens, UniProt P04629); test: In vitro association of SHP with baculovirus-expressed TrkA; type: binding; details: autophosphorylated TrkA, insect cells
T1 construct: expressed in transfected cells; host or cells: Sf9 insect cells infected with recombinant baculoviruses
Description: (§1) FIG. 7 is a Western blot showing that SHP-1 associates with baculovirus-expressed TrkA, TrkB and TrkC. TrkA, B and C were activated and autophosphorylated in vitro, incubated with PC12 cell lysates, fractionated by electrophoresis, and probed with anti-SHP-1 (bottom panel), and anti-pan Trk antibodies (upper panel).
Wild-type and mutant TrkA receptors expressed in Sf9 cells were autophosphorylated, incubated with PC12 lysates and immunoblotted with anti-SHP-2.
The in vitro association assay using baculovirus-expressed proteins was performed as described (Kaplan et al., supra). Briefly, Sf9 cells (2×10^6) were infected, harvested, and lysed in NP-40 lysis buffer. Trk proteins were immunoprecipitated with anti-Trk (203) antibody, and the immunoprecipitates were washed once with lysis buffer containing 1% deoxycholate and 0.1% SDS (RIPA), and three times with 50 mM Tris (pH 7.4). Trks then were activated (i.e. autophosphorylated) by incubation with 50 mM Tris (pH 7.4), 5 mM Mn Cl2, 1 mM ATP and 200 μM orthovanadate. Trk proteins then were washed twice with NP40 lysis buffer and were resuspended in 1 ml of PC12 cell lysate. The immunoprecipitated, activated Trk complexes were incubated with the cell lysate for 3 hr at 4° C., and then washed three times with NP-40 lysis buffer and once with 10 mM Tris (pH 7.4) before immunoblot analysis. […]

Trk = molecular target: T2, Trk (Homo sapiens, UniProt P04629); test: In vitro dephosphorylation of autophosphorylated 32P-labeled Trk by partially purified SHP; type: biochemical; details: 20 minutes at 30° C.
T2 construct: made in house; host or cells: Sf9 insect cells (recombinant baculovirus)
Description: FIG. 10 is an autoradiogram showing that SHP-1 and SHP-2 dephosphorylate Trk in vitro. Trk, SHP-1 and SHP-2 were expressed in Sf9 insect cells and isolated by immunoprecipitation with anti-Trk, anti-SHP-1 or anti-SHP-2 antibody. Immunoprecipitated Trk was autophosphorylated with [y-^32P]ATP and then was incubated with partially purified SHP-1 or SHP-2. Trk phosphorylation levels then were analyzed by SDS/PAGE and autoradiography.
We hypothesized that the suppressive effects of SHP upon NGF-mediated survival might be due to dephosphorylation of the autophosphorylated Trk receptor. Given that SHP-1 can bind to activated Trk and that SHP-2 is activated by Trk (see Example II), we sought to determine whether the SHPs could dephosphorylate TrkA in vitro and in vivo. Trk, SHP-1, and SHP-2 were expressed in Sf9 cells and isolated by immunoprecipitation with anti-Trk, anti-SHP-1, or anti-SHP-2 antibodies. Immunoprecipitated Trk was autophosphorylated by incubating with 10 mM MnCl2, 20 mM Tris pH 7.4 and 2.0 μCi/ml [γ-^32P]-ATP(3000 Ci/mmol) for 30 minutes at room temperature. Activated, radiolabeled Trk then was incubated with partially purified SHP-1 or SHP-2 for 20 minutes at 30° C. In vitro, both SHP-1 and SHP-2 are able to dephosphorylate Trk to a similar extent (FIG. 10) i.e., approximately 5-fold dephosphorylation. […]

TrkA [2] = molecular target: T1, TrkA; test: Trk dephosphorylation on coexpression with SHP in Sf9 insect cells; type: cell-based; details: wild-type TrkA coexpressed in insect cells; for dephosphorylation of Trk at the 674/675 sites: phospho-specific anti-Trk antibodies
Excerpt: (§2) FIG. 11 is a Western blot showing that Y490 and Y785 of TrkA are not required for SHP-1 and SHP-2-mediated dephosphorylation of TrkA in vivo. Lysates of Sf9 insect cells coexpressing SHP-1 or SHP-2 wild-type and mutant TrkAs, as indicated, were immunoprecipitated with anti-Trk and probed with anti-pTyr antibody (upper panel) to determine TrkA phosphorylation levels.
(§3) FIG. 12 is a Western blot showing that Y674/Y675 of TrkA are targets of SHP-1 and SHP-2-mediated dephosphorylation. Lysates of Sf9 insect cells co-expressing SHP-1 or SHP-2 and wild-type TrkA using antibodies that specifically recognize these phosphorylated residues. Blots were probed with anti-pan Trk (C,D), anti-SHP-1 (E,F), or anti-SHP2 (G,H) antibodies.
(§4) Sf9 insect cells (2×10^6) were infected with recombinant baculoviruses at a multiplicity of infection of 1 to 10 and lysed at 48 hr postinfection. Sf9 cells were assayed for the expression of the recombinant proteins by immunoblot analysis, as described above. Recombinant baculoviruses were prepared as previously described (Stephens et al., Neuron, 12:691-705, (1994).
(§5) We hypothesized that the suppressive effects of SHP upon NGF-mediated survival might be due to dephosphorylation of the autophosphorylated Trk receptor. Given that SHP-1 can bind to activated Trk and that SHP-2 is activated by Trk (see Example II), we sought to determine whether the SHPs could dephosphorylate TrkA in vitro and in vivo. Trk, SHP-1, and SHP-2 were expressed in Sf9 cells and isolated by immunoprecipitation with anti-Trk, anti-SHP-1, or anti-SHP-2 antibodies. Immunoprecipitated Trk was autophosphorylated by incubating with 10 mM MnCl2, 20 mM Tris pH 7.4 and 2.0 μCi/ml [γ-^32P]-ATP(3000 Ci/mmol) for 30 minutes at room temperature. Activated, radiolabeled Trk then was incubated with partially purified SHP-1 or SHP-2 for 20 minutes at 30° C. In vitro, both SHP-1 and SHP-2 are able to dephosphorylate Trk to a similar extent (FIG. 10) i.e., approximately 5-fold dephosphorylation. Moreover, coexpression of Trk with SHP-1 or SHP-2 in insect cells results in Trk dephosphorylation. In vivo, both SHP-1 and SHP-2 reduce Trk tyrosine phosphorylation, even when the receptors lack tyrosine 490 (Y490F) and/or tyrosine 785 (Y785F) (FIGS. 11 and 12).
(§6) In order to map the sites of dephosphorylation two approaches were taken. First, we asked whether Trks mutated at tyrosines 490 and 785 could be dephosphorylated by SHP-1 or SHP-2 when coexpressed in insect cells (FIG. 11). SHP-1 extensively dephosphorylates (about 8-fold) all of the Trks, both wild-type and mutated, whereas SHP-2 causes a more modest dephosphorylation (about 2-fold). […] To determine whether the two other major tyrosine phosphorylation sites in Trk, Y674 and 675, are substrates of the SHPs, wild-type TrkA and the SHPs were coexpressed in insect cells, and Trk phosphorylation at Y674, Y675 and Y490 was assessed using phospho-specific anti-Trk antibodies directed at tyrosines 674/675 and 490. SHP-1 completely dephosphorylates Trk (about 10-fold) at the 674/675 sites, while SHP-2 partially dephosphorylates Trk (about 2-fold) at these sites. Tyrosine phosphorylation of the Y490 site also is decreased by SHP-1. […] Since SHP-2 expression stimulates sympathetic neuron death (FIG. 6), we conclude that SHP functions by associating with neurotrophin-activated Trk, dephosphorylating the receptor at sites crucial for maintaining Trk activity, and thereby suppressing neuronal survival.

TrkA [3] = test: as above; type: cell-based; details: coexpressed in insect cells, anti-pTyr blot
Excerpt: as §2, §3, §4, §5, §6

SHP-1 = test: NGF-stimulated tyrosine phosphorylation of SHP-1 (immunoprecipitation with anti-SHP-1, anti-pTyr blot); type: cell-based; details: PC12 cells; increased at 10 minutes, still elevated at 30 minutes of neurotrophin treatment
Description: FIG. 2 is a Western blot showing that NGF stimulates tyrosine phosphorylation of SHP-1 in PC12 cells. Lysates prepared from cells treated with NGF were immunoprecipitated with anti-SHP-1 and probed with an anti-phosphotyrosine (pTyr) antibody (top panel).
(§7) Immunoprecipitations and immunoblotting were performed as previously described (Kaplan et al., Science, 252:554-558, 1991). Briefly, after two washes with ice-cold Tris-buffered saline, cells were lysed in 1 ml of 1% Nonidet P-40 (NP-40 lysis buffer (20 mM Tris [pH8.0], 137 mM NaCl, 0.5 mM EDTA, 10% glycerol, 1 mM phenylmethylsulphonyl fluoride, 0.15 U/ml aprotinin, 20 μM leupeptin, 1 mM sodium vanadate) at 4° C. for 20 min. Insoluble material was removed by centrifugation at 4° C. for 10 min at 10,000× g. Immunoprecipitations were performed for 4-6 hr at 4° C. Precipitates were collected with protein A-Sepharose, then washed three times with NP-40 lysis buffer and once with water. The immunoprecipitates were boiled in sample buffer (2% SDS, 100 mM dithiothreitol, 10% glycerol, 0.25% bromophenol blue) for 5 min and electrophoretically fractionated by SDS-PAGE. Protein blots were probed overnight at 4° C. with antibody. […]

SHP-2 [4] = test: NGF-stimulated association of SHP-2 with tyrosine-phosphorylated proteins in PC12 cells; type: cell-based; details: proteins of 50 to 125 kDa
Description: FIG. 3 is a Western blot showing that NGF stimulates the association of SHP-2 with tyrosine-phosphorylated proteins in PC12 cells. Lysates prepared from PC12 cells treated with NGF for the indicated times were immunoprecipitated with anti-SHP-2 and probed with anti-pTyr antibodies.
as §7

SHP-2 [5] = test: NGF-stimulated association of SHP-2 with tyrosine-phosphorylated proteins in SCG neurons; type: cell-based, rat; details: NGF-treated SCG cultures
Excerpt: FIG. 4 is a Western blot showing that NGF stimulates an increased association of tyrosine-phosphorylated proteins with SHP-2 in SCG neurons. Lysates prepared from neurotrophin-treated SCGs were immunoprecipitated with anti-SHP-2 antibody and immunoblotted with anti-pTyr. Lanes 1 and 2: NGF-stimulated association of tyrosine-phosphorylated proteins with SHP-2. Lanes 3 and 4: NGF-stimulated increase in tyrosine phosphorylation of SCG proteins.
To determine the mechanism whereby the neutrotrophins stimulate the survival and growth of normal and injured neurons, we have asked whether the phosphoprotein phosphatases SHP-1 and SHP-2 play a role in the differentiation and survival of primary neurons, focusing our studies on cultured rat sympathetic cervical ganglion (SCG) and cortical neurons in order to determine the exact nature of this regulation.
Immunoprecipitations and immunoblotting were performed as previously described (Kaplan et al., Science, 252:554-558, 1991). […]

TrkB = molecular target: T3, TrkB (Homo sapiens, UniProt Q16620); test: In vitro association of SHP with baculovirus-expressed TrkB; type: binding; details: autophosphorylated TrkB, insect cells
T3 construct: made in house; host or cells: Sf9 insect cells (recombinant baculovirus)
Description: as §1
(§8) The in vitro association assay using baculovirus-expressed proteins was performed as described (Kaplan et al., supra). Briefly, Sf9 cells (2×10^6) were infected, harvested, and lysed in NP-40 lysis buffer. Trk proteins were immunoprecipitated with anti-Trk (203) antibody, and the immunoprecipitates were washed once with lysis buffer containing 1% deoxycholate and 0.1% SDS (RIPA), and three times with 50 mM Tris (pH 7.4). Trks then were activated (i.e. autophosphorylated) by incubation with 50 mM Tris (pH 7.4), 5 mM Mn Cl2, 1 mM ATP and 200 μM orthovanadate. Trk proteins then were washed twice with NP40 lysis buffer and were resuspended in 1 ml of PC12 cell lysate. The immunoprecipitated, activated Trk complexes were incubated with the cell lysate for 3 hr at 4° C., and then washed three times with NP-40 lysis buffer and once with 10 mM Tris (pH 7.4) before immunoblot analysis.
(§9) To investigate the mechanism whereby SHP inhibits NGF-induced signaling responses, we first asked whether the SHPs bound to Trk. […]

TrkC = molecular target: T4, TrkC (Homo sapiens, UniProt Q16288); test: In vitro association of SHP with baculovirus-expressed TrkC; type: binding; details: autophosphorylated TrkC, insect cells
T4 construct: made in house; host or cells: Sf9 insect cells (recombinant baculovirus)
Description: as §1, §8, §9

T1 sequence (P04629 33-790 isoform P04629-2): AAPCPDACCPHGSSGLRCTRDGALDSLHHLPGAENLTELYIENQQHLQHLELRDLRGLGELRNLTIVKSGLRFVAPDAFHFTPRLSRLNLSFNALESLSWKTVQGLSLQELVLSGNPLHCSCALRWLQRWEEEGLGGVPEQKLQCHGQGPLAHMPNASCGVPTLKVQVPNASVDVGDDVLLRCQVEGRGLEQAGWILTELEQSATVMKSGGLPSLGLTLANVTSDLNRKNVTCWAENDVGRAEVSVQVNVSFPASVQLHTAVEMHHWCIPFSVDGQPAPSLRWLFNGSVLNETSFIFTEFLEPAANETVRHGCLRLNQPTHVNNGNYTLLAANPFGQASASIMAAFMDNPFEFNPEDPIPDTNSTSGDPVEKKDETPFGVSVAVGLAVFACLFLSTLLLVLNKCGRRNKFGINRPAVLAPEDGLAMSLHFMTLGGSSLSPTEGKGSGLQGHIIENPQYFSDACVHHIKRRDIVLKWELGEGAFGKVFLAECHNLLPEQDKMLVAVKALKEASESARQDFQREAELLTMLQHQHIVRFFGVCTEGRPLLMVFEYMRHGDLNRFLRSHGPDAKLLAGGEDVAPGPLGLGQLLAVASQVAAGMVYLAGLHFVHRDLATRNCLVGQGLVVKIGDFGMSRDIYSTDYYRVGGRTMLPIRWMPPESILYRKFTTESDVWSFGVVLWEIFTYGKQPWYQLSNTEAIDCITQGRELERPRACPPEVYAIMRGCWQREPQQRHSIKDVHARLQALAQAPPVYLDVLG
T2 sequence (P04629 33-790 isoform P04629-2 limits assumed): as the sequence (P04629 33-790 isoform P04629-2) above
T3 sequence (Q16620 32-822, species assumed): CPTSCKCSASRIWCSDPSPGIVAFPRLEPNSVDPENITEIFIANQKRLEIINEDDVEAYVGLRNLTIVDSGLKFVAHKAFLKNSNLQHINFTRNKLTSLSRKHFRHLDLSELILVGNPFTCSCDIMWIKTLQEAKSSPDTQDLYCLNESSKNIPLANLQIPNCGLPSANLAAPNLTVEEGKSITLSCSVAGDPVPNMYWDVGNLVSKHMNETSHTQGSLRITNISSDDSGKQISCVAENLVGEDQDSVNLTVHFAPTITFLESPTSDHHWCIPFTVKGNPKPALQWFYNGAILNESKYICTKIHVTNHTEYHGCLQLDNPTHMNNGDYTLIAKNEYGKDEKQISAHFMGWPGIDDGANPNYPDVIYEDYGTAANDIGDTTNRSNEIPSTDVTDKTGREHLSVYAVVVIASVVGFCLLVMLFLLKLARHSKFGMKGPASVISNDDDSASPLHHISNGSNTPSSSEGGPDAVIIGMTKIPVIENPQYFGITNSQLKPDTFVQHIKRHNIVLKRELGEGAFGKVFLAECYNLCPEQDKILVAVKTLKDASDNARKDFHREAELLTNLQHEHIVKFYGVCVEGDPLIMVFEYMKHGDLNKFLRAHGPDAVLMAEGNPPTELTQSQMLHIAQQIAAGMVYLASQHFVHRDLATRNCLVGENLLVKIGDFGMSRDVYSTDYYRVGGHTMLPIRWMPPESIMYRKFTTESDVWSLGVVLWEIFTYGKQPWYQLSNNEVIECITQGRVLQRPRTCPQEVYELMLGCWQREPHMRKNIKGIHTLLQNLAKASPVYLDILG
T4 sequence (Q16288 32-839, species assumed): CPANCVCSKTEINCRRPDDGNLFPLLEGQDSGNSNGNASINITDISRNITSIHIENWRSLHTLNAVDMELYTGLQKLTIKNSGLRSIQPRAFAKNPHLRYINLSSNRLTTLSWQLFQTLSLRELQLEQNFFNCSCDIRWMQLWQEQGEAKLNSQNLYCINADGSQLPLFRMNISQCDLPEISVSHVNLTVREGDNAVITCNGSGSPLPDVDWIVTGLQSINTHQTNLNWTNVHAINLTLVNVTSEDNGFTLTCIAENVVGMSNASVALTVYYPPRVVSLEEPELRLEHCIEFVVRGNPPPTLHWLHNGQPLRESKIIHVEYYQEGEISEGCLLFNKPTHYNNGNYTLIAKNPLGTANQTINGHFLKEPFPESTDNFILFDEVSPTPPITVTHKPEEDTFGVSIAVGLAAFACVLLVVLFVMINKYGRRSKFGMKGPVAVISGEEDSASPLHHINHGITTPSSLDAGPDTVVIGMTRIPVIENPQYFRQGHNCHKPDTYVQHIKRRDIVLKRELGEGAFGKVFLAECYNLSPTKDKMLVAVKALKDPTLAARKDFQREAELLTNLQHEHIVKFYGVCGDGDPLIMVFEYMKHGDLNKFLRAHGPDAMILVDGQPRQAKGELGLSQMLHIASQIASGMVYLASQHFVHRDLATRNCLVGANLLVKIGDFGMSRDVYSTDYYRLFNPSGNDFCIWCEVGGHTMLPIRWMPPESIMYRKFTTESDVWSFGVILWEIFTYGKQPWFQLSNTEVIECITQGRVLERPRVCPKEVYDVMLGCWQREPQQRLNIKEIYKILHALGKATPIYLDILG

Row | Substance | binding to activated Trk (TrkA [1]) | dephosphorylation of Trk in vitro (Trk) | dephosphorylation of Trk at the 674/675 sites (TrkA [2]) | dephosphorylation of Trks, wild-type and mutated at tyrosines 490 and 785 (TrkA [3]) | tyrosine phosphorylation of SHP-1 (SHP-1) | association of SHP-2 with tyrosine phosphorylated proteins (SHP-2 [4]) | association of SHP-2 with tyrosine phosphorylated proteins (SHP-2 [5]) | binding to activated Trk (TrkB) | binding to activated Trk (TrkC) | tyrosine phosphorylation of the Y490 site (TrkA [2]; phospho-specific anti-Trk antibody)
1 | SHP-2: nontransmembrane protein-tyrosine phosphatase containing SH2 domains, GenBank Accession Number L03535 | unable to bind to Trk | approximately 5 fold | about 2 fold | about 2 fold |  |  |  |  |  | 
2 | NGF: prototypical neurotrophin, Nerve Growth Factor, obtained from Peprotech |  |  |  |  | stimulates an increase in the tyrosine phosphorylation of SHP-1 | stimulates the association of SHP-2 with a number of tyrosine phosphorylated proteins | SHP-2 could be seen to associate with at least five tyrosine phosphorylated proteins |  |  | 
3 | SHP-1: nontransmembrane protein-tyrosine phosphatase containing SH2 domains, GenBank Accession Number M77273 | binds to activated (i.e. autophosphorylated) TrkA, TrkB and TrkC | approximately 5 fold | about 10 fold | about 8 fold |  |  |  | binds to activated (i.e. autophosphorylated) TrkA, TrkB and TrkC | binds to activated (i.e. autophosphorylated) TrkA, TrkB and TrkC | decreased

Reference: patent US20020110800A1, “Use of SHP-1 and SHP-2 to detect compounds involved in neuronal survival” (McGill University, priority 1997, published 2002)
